The subject of test [1] is cell membrane of HEK293 cells. Briefly: Homologous competition assay: binding of 125I-BDD-FVIII to the cell membrane with blocking agents. As to conditions: for % of total binding: 0.5 nM 125I-FVIII, 4° C., 2 hours, Annexin V 500 nM, OPLS 20 mM, Heparin 100 ug/mL, RAP 500 nM; for reduction of membrane attached FVIII: same experiment as Table 2. The protocol: The affinity of purified B-domain deleted factor VIII (BDD-FVIII) (kindly provided by J. Karlsson and L. Thim, Novo Nordisk A/S) to the cell membrane of HEK293 cells was investigated by a homologous competition assay using ^125I-BDD-FVIII and unlabelled BDD-FVIII. Cells were washed once in PBS+1% BSA. 5×10^5 cells were distributed to a microtiter well and the plate was cooled to 4° C. During blocking of the cell surface, binding of BDD-FVIII was examined. A constant concentration of ^125I-FVIII (0.5 nM) was added simultaneously with either Annexin V (0.5 μM, Sigma), Ortho-Phospho-L-serine (20 mM, Sigma), Heparin (100 μg mL-1, Leo Pharmaceuticals), and Receptor Associated Protein (RAP) 0.5 μM (kindly provided by H. H. Petersen, Novo Nordisk A/S) at 4° C. to prevent endocytosis.
The plate was incubated at 4° C. for 2 hours with gentle shaking. After centrifugation unbound (non-membrane attached) ^125I-FVIII was removed and cells were washed twice in ice-cold assay buffer (10 mM HEPES, 150 mM NaCl, 4 mM KCl, 11 mM glucose, 5 mM CaCl2, 1 mg ml^−1 BSA, pH 7.4). Surface bound ^125I-FVIII was counted on a gamma-counter. The experiments were performed twice in triplicate. Non-specific binding was estimated in the presence of 12000× excess of unlabeled BDD Factor VIII.
In an attempt to determine potent inhibitors of the cell membrane interaction, four proteins known for their specific effect in either: 1) blocking phosphatidylserine (annexin V), 2) interacting with the C2 domain of FVIII (OPLS), 3) interacting with receptors that facilitate internalisation followed by degradation such as LRP (Lipoprotein receptor-related protein) and HSPGs (heparin sulphate proteoglycans) were tested (RAP, heparin).

The test system of test [2] is CHO DUKX B11 cells stably expressing BDD-FVIII. Briefly: FVIII membrane displacement cell cultures (additives in culture medium, culture fluid and membrane bound fraction assayed). The format is cell-based. The settings on record: 24 hours, serum free medium, OPLS 20 mM, F8 LC 1.38 μM, Lactadherin 0.15 μM, unit from b101. The protocol:
The additives mentioned below (lactadherin, Factor VIII light chain and/or OPLS) were added to the culture medium and the cells were incubated for 24 hours following assaying of the culture fluid and the membrane bound fraction.

Test [3] relates to HKB11 cells. Briefly: Transient co-expression with F8, FVIII coagulation activity (two-stage chromogenic assay, coa). The format is cell-based. The settings on record: for displacement of F8 from the cell surface into the supernatant: in words. As for the experimental part:
(§1) HEK293 cells were maintained in commercial FreeStyle medium supplemented with 50 U/mL penicillin and 50 ug/mL streptomycin. Cells were grown as suspension cells in shakers and incubated at 37° C. under 5% CO2 and 95% relative humidity conditions.
(§2) Cells were seeded at a density of 3×10^5 cells/mL and passaged every 3-4 days. For transfection experiments the cell culture was scaled up until the target density was reached. Viable and total cell concentrations were evaluated by Cedex (Innovartis) analysis. The instrument uses image analysis software for automated cell counting and viable cells were identified based on their ability to exclude trypan blue.
(§3) Plasmid DNA was transfected into HKB11 cells by 293 fectin following the manufacturer's recommendations. Conditioned medium was harvested on indicated days following gentle centrifugation of the suspension culture. The cell pellet was resuspended in FreeStyle medium containing 0.5M NaCl and after gentle centrifugation, a sample, representing the FVIII attached to the cell membrane was taken. Samples were stored at −80° C. until analysis.
(§4) FVIII coagulation activity was measured by a two-stage chromogenic assay (Coamatic Factor VIII analysis kit, Chromogenix). Factor VIII:Ag assay was performed using polyclonal antibodies from Affinity Biologicals (F8C-EIA). Both assays were done following the manufactures instructions and with in-house B-domain deleted affinity purified Factor VIII as standard.

For test [4], the system named is HKB11 cells. Briefly: Transient co-expression with F8, Factor VIII:Ag ELISA. The format is cell-based. As for the experimental part:
as §1, §2, §3, §4

Several values for one entry are separate records, joined by “and”; a condition that tells them apart may be missing. Equal entries are not always repeated.

On to `N[C@@H](COP(=O)(O)O)C(=O)O` [OPLS, Ortho-Phospho-L-serine, reference compound], for which, in test [1], the “% of total binding” value is given as 68.4% and the “reduction of membrane attached FVIII” value is given as around 30%. Besides, in test [2], the “supernatant average (activity of FVIII in the culture medium)” value was 6000 mU/mL and 6347 mU/mL; the “wash average (FVIII activity on the membrane)” value is given as 1691 mU/mL.

With Heparin, in test [1], the “% of total binding” value is on record as 86.8% and the “reduction of membrane attached FVIII” value was “small but not significant effect”.

For the molecule RAP: Receptor Associated Protein (RAP), in test [1], the “% of total binding” value was determined as 106.6% and the “reduction of membrane attached FVIII” value is listed as “no effect”.

B1: Lactadherin: lactadherin, agent that binds to phosphatidylserine; added to medium or co-expressed with F8 (protein)
chain: LDICSKNPCHNGGLCEEISQEVRGDVFPSYTCTCLKGYAGNHCETKCVEPLGMENGNIANSQIAASSVRVTFLGLQHWVPELARLNRAGMVNAWTPSSNDDNPWIQVNLLRRMWVTGVVTQGASRLASHEYLKAFKVAYSLNGHEFDFIHDVNKKHKEFVGNWNKNAVHVNLFETPVEAQYVRLYPTSCHTACTLRFELLGCELNGCANPLGLKNNSIPDKQITASSSYKTWGLHLFSWNPSYARLDKQGNFNAWVAGSYGNDQWLQVDLGSSKEVTGIITQGARNFGSVQFVASYKVAYSNDSANWTEYQDPRTGSSKIFPGNWDNHSHKKNLFETPILARYVRILPVAWHNRIALRLELLGC
modifications: homo sapiens
notes: added to medium or co-expressed with F8
As to B1, the entries for the “supernatant average (activity of FVIII in the culture medium)” value in test [2] and in test [2] (listed as lactadherin) were 8085 mU/mL and “further increases the amount of FVIII in the culture medium”, respectively. For the same molecule, the figures for the “wash average (FVIII activity on the membrane)” value in test [2] and in test [2] (listed as lactadherin) were 1406 mU/mL and “a decline in membrane bound FVIII is observed”, respectively. The “displacement of F8 from the cell surface into the supernatant” value with HKB11 cells [3] (day 3, viability ~90%) is given as “effectively displacement”; in the test with HKB11 cells [3] (day 4, viability ~80%), “could no longer keep F8 in the supernatant”. Moreover, the “coa, supernatant” value with HKB11 cells [3] (harvest day 3, supernatant) is given as 5448 +/− 122 mU/ml; in the test on HKB11 cells [3] (harvest day 4, supernatant), 1044 +/− 425 mU/ml; with HKB11 cells [3] (harvest day 5, supernatant), 327 +/− 13 mU/ml. In addition, the “coa, wash” value is listed as 640 +/− 116 mU/ml in the test on HKB11 cells [3] (harvest day 3, wash (0.5M NaCl, membrane attached FVIII)); 3575 +/− 558 mU/ml in the test with HKB11 cells [3] (harvest day 4, wash (0.5M NaCl, membrane attached FVIII)); 3510 +/− 46 mU/ml with HKB11 cells [3] (harvest day 5, wash (0.5M NaCl, membrane attached FVIII)). The “FVIII ELISA, supernatant” value in the test on HKB11 cells [4] (harvest day 3, supernatant) was 530 ± 113 ng/mL; in the test on HKB11 cells [4] (harvest day 4, supernatant), 270 ± 54 ng/mL; with HKB11 cells [4] (harvest day 5, supernatant), 108 ± 119 ng/mL. Moreover, the “FVIII ELISA, wash” value in the test with HKB11 cells [4] (harvest day 3, wash) is 67 ± 0 ng/mL; in the test with HKB11 cells [4] (harvest day 4, wash), 278 ± 37 ng/mL; with HKB11 cells [4] (harvest day 5, wash) it was 287 ± 33 ng/mL.

B2: Annexin V: Ca++ dependent phospholipid-binding protein that react with phosphatidylserine (Sigma) (protein)
chain: MAQVLRGTVTDFPGFDERADAETLRKAMKGLGTDEESILTLLTSRSNAQRQEISAAFKTLFGRDLLDDLKSELTGKFEKLIVALMKPSRLYDAYELKHALKGAGTNEKVLTEIIASRTPEELRAIKQVYEEEYGSSLEDDVVGDTSGYYQRMLVVLLQANRDPDAGIDEAQVEQDAQALFQAGELKWGTDEEKFITIFGTRSVSHLRKVFDKYMTISGFQIEETIDRETSGNLEQLLLAVVKSIRSIPAYLAETLYYAMKGAGTDDHTLIRVMVSRSEIDLFNIRKEFRKNFATSLYSMIKGDTSGDYKKALLLLCGEDD
modifications: homo sapiens
For B2, in test [1], the “% of total binding” value was found to be 28.5% and the “reduction of membrane attached FVIII” value is around 70%.

These data come from patent publication US20140308707A1, “METHOD FOR PRODUCTION OF FACTOR VIII” (Novo Nordisk A/S, priority 2011, published 2014).
